assay: yeast display, Sf9 membrane polyspecificity reagent, FACS + sequencing; frameworks hold sequencing errors
Outline: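 Galactose-induced (36–48 hours) yeast carrying a synthetic nanobody display library were exposed to 10% biotinylated, detergent-solubilized Sf9 membrane reagent at 4 °C for 1 hour. FACS followed streptavidin microbead enrichment, using low and high (top ~1%) gates for expression (anti-HA) and reagent binding (streptavidin). Colony PCR, MiSeq 2 × 250 sequencing and CDR-length filtering followed. Labels for polyreactivity reflect the gate of origin.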

Row | Sequence | polyreactivity (PSR sort gate)
1 | QVQLVESGGGLVQAGGSLRLSCAASGSIFSWNAMGWYRPAPGKEREFVAAISYGSTSTTYADSVKGRFTISRDNAKNTVYLQMNSLKPEDTAVYYCAAVPRRSGHQRWGATYYYWGQGTQVTVSS | high polyreactivity
2 | QVQLVESGGGLVQAGGSLRLSCAASGSIFSWNAMGWYRQAPGKERELVAAISTRGSSTYYADSVKGRFTISRDNAKNTVYLQMNSLKPEDTAVYYCNAARTFPFYWGLRGSQRYDYWGQGTQVTVSS | high polyreactivity
3 | QVQLVESGGGLVQAGGSLRLSCAASGSIFSYNAMGGYRQAPGKERELVAGITSGASTNYADSVKGRFTISRDNAKNTVYLQMNSLKPEDTAVYYCNADDIFRPRDDLYDYWGQGTQVTVSS | low polyreactivity
4 | QVQLVESGGGLVQAGGSLRLSCAASGSIFSYNAMGWYRQAPGKEREFVAAITSSGTRTYYADSVKGRFTISRDNAKNTVYLQMNSLKPEDTAVYYCAAKPSRYGIGFYWGQGTQVTVSS | high polyreactivity
5 | QVQLVESGGGLVQAGGSLRLSCAASGSIFSYNAMGWYRQAPGKERELVAAISWSGGSTYYADSVKGRFTISRDNAKNTVYLQMNSLKPEDTAVYYCNAYRYRQSSSDKYGYWGQGTQVTVSS | high polyreactivity
6 | QVQLVESGGGLVQAGGSLRLSCAASGSIFSYNAMGWYRQAPGKERELVAAITWSGGSTYYADSVKGRFTISRDNAKNTVYLQMNSLKPEDTAVYYCAAVYDDYSTSVGYSPEYDYWGQGTQVTESS | high polyreactivity
7 | QVQLVESGGGLVQAGGSLRLSCAASGSIFSYNGMGWYRQAPGKERELVATISASSVTTYYADSVKGRFTFSRDNAMNTVYLQMNSLKPEDTAVYYCARDAYSVYYYVFLHWEYDYWGQGTQVTVSS | high polyreactivity
8 | QVQLVESGGGLVQAGGSLRLSCAASGSIFSYYAMGWYRQAPAKERELVAAISQNACSTYYADSVKGRFTISRDNAKNTVYLQMNSLKPEDTAVYYCNAYSVYVRGEYWGQGTQVNVSS | high polyreactivity
9 | QVQLVESGGGLVQAGGSLRLSCAASGSIFSYYAMGWYRQAPGKERELVAAITTSGGSTYYADSVKGRVTISRDNAKNTVYLQMNSLKPEDTAVYYCAAETAWYITTGYDYWGQGTQVTVSS | low polyreactivity
10 | QVQLVESGGGLVQAGGSLRLSCAASGSIFSYYAMGWYRQAPGKERELVAAITVRGGSTYYADSVKGRFTISRDNAKNTVYFQMNSLKPEDTAVYYCAADWLDESFSYGPYYYWGQGTQVTVSS | low polyreactivity
11 | QVQLVESGGGLVQAGGSLRLSCAASGSIFSYYAMGWYRQAPGKERELVATITSSGSTYADSVKGRFTISRDNAKNTVYLQMNSLKPEDTAVYYCNADSGYSEYWGVDVAYDYWGQGTQVTVSS | low polyreactivity
12 | QVQLVESGGGLVQAGGSLRLSCAASGSIFSYYAMGWYRQAPGKERVLVAAIRRGGSTNYADSVKGRFTISRDNAKNTVYLQLNSLKPEDTAVYYCAASLGWRFYYWGQGTQVTVSS | high polyreactivity
13 | QVQLVESGGGLVQAGGSLRLSCAASGSIFSYYDMGWYRQAPGKERELVAAIRWSGGITYADSVKGRFTISRDNAKNTVYLEMNSLKPEDTAVYYCAADQYYRSDYYYWGQGTQVTVSS | low polyreactivity
14 | QVQLVESGGGLVQAGGSLRLSCAASGSIFSYYTIGWYRKAPGKERELVAAISFSGTSTYYADSVKGRFTISRDNDKNTVYLQMNSLKPEDTAVYFCAKRALYYPTYPKYDTYNRYYWGQGTQGTVSS | high polyreactivity
15 | QVQLVESGGGLVQAGGSLRLSCAASGSIFSYYTMGWYRQAPGKERELVAAITKSGGSTYYADSVKGRFTISRDNAKNTVYLQMNSLKPEDTAVYYCAASYGGYPKGNYWGQGTQVTVSS | high polyreactivity
16 | QVQLVESGGGLVQAGGSLRLSCAASGSIFTAYAMGWYRQAPGKEMELVAAITYNGGSTYYADSVKGRFTISRDNAKNTVYLQMNSLKPEDTAVYYCAARYWFYYDLYDYWGQGTQVTVSS | low polyreactivity
17 | QVQLVESGGGLVQAGGSLRLSCAASGSIFTDNVMGWYRQAPGKERELVAAITYSAASTYYADSVKGRFTISRDNAKNTVYLQMNSLKPEDTAVYYCNARIIYRKWLFRSGTFNYWGQGTQVTVSS | low polyreactivity
18 | QVQLVESGGGLVQAGGSLRLSCAASGSIFTDYAMGWYRQAPGKERELVAAITSSGGSTYYADSVKGRFTISRDNAKNTVYLQMNSLKPEDTAVYYCDADRITIYDYWGQGTQVTVSS | low polyreactivity
19 | QVQLVESGGGLVQAGGSLRLSCAASGSIFTDYTMGWYRQAPGKERELVAAISWIGDSTDYADSVKGRFTISRDNAKNTVYLQMNSLNPEDTAVYYCAKSRAGRYNDYDYWGQGTQVTVSS | low polyreactivity
20 | QVQLVESGGGLVQAGGSLRLSCAASGSIFTFYAMGWYRPAPGKERELVAAITRSGGSTYYADSVKGRFTISRDNAKNTVYLQMNSLKPEDTAVYYCAKDPSSYVTYRYYYWGQGTEVTVSS | low polyreactivity
21 | QVQLVESGGGLVQAGGSLRLSCAASGSIFTFYAMGWYRQAPGKERELVAAISYGGGITYYADSVKGRFTISRDNAKISVYLQMNSLIPEDSAVYYCAADDGYYNLYFDYDFWGQGTQLTVSS | low polyreactivity
22 | QVQLVESGGGLVQAGGSLRLSCAASGSIFTFYAMGWYRQAPGKERELVASITSGAGITYYADSVKGRFTISRDNAKNTVYLQMNSLKPEDTAVYYCAADWSGDFFTDGYWGQGTQVTVSS | low polyreactivity

Row | Sequence | polyreactivity (PSR sort gate)
23 | QVQLVESGGGLVQAGGSLRLSCAASGSIFTFYAMGWYRQAPVKERELVAGIRWRGGTSTFYADSVKGRFTISRDNAKNTVYLQMNSLKPEDTAVYYCAAKRRTGGNGYWGQGTQVTVSS | high polyreactivity
24 | QVQLVESGGGLVQAGGSLRLSCAASGSIFTGNTMGWYRQAPGNERELVAAMSRRGGRTYYADSVKGRFTISRDNAKNTVYLQMNSLKPEDPAVYYCAADGWYWTYIVEYWGQGTQVTVSS | high polyreactivity
25 | QVQLVESGGGLVQAGGSLRLSCAASGSIFTHNAMGCYRQAPGKERELVAAMSSGGSTNDADSVKGRFTISRDNAKNTVYLKMNSLTPEDTAVYYCAKSIDGWYWRRRRYDYWGQGTQVTVSS | low polyreactivity
26 | QVQLVESGGGLVQAGGSLRLSCAASGSIFTHYAMGWYRQAPGKERELVAGITSSGGSTYADSVKGRFTISRDNAKNTVYLQMNSLKPEDTAVYYCNADNATYFVYEFNYWGQGTQVTVSS | low polyreactivity
27 | QVQLVESGGGLVQAGGSLRLSCAASGSIFTINAMGWYRQAPGIERALVAAIRSGGGTNYADSVKGRFTISRDNAKNTVYFQMNSLKPEDTAVYYCAADLWAGKYGEYDYWGQGTQVTVSS | high polyreactivity
28 | QVQLVESGGGLVQAGGSLRLSCAASGSIFTINAMGWYSQAPGKERELVAALTSGGSTSYADSVKGRFTISRDIAKNTVYLQMNSLKPEDTAVYYCAADAKRFYPYRWRLYYWGQGTQVTVSS | high polyreactivity
29 | QVQLVESGGGLVQAGGSLRLSCAASGSIFTLNAMGWYRQAPGKERELVAAISRSGGSTYYADSVKGRFTISRDNAKNTVYLQMNSLKPEDTAVYYCAVYVTRDSGWWLYDYWGQGTQVTVSS | high polyreactivity
30 | QVQLVESGGGLVQAGGSLRLSCAASGSIFTLYAMGWYRQAPGKERELVAAITWSGGSTYYADSVKGRFTISRDNAKNTVYLQMNSLKPEDTAVYFCAKDYLAGGPWEGHVEREYDYWGQGTQVTVSS | low polyreactivity
31 | QVQLVESGGGLVQAGGSLRLSCAASGSIFTPNAMGWYRQAPGKERALVAAISSSSDRTYYADSVKGRFTISRDNAKNTVYLQMNSLKPEDTAVYYCAAYAQKRYYWGQGTQVTVSS | high polyreactivity
32 | QVQLVESGGGLVQAGGSLRLSCAASGSIFTPNSMGSYRPAPGKERELVAAISSSSDRTYYADSVKGRFTISRDNAKNTVYLQRNSLKPEDTAVYYCAAYAQKRYYWGQGTEVTVSS | high polyreactivity
33 | QVQLVESGGGLVQAGGSLRLSCAASGSIFTPYAMGWYRQAPGKERELVAAISRSGGSTYYADSVKGRFTISRDKAKNTVYLQMNRLKPADSAVYYCAADVQTLITLGQFDYWGQGTQVTVSS | low polyreactivity
34 | QVQLVESGGGLVQAGGSLRLSCAASGSIFTPYAMGWYRQAPGKERELVAAISRSGGSTYYADSVKGRFTISRDNAKITVYLQMNSLKPEDTAVYYCAVVASLSHTETPEYDYWGQGTQGTVSS | low polyreactivity
35 | QVQLVESGGGLVQAGGSLRLSCAASGSIFTPYAMGWYRQAPGKERELVATISARGGSTYYADSVKGRFTISRDNAKNTVYLQMNSLKPEDTAVYYCNVDYAQRVFLYDYWGQGTQVTVSS | low polyreactivity
36 | QVQLVESGGGLVQAGGSLRLSCAASGSIFTRNAMGWYRQAPGKERELVAAISWRGGITNYADSVKGRFTISRDNAKNTVYLQMNSLKPEDTAVYYCNKKRTRGGYGYWGQGTQVTVSS | high polyreactivity
37 | QVQLVESGGGLVQAGGSLRLSCAASGSIFTRNTMGWSRQAPGKERELVAAISQRGGSTYSADSVKGRFTISRDNAKNTVYLQMNSLKPEDTAVYYCAADFSFGYYWDGFWGQGTQVTVSS | high polyreactivity
38 | QVQLVESGGGLVQAGGSLRLSCAASGSIFTRYAMGWYRQAPGKERELVAAISRSDGGTNYADSVKGRFTISRDNAKNTVYLQMNSLKPEDTAVYYCAKDWYYYYPYDYWGQGTQVTVSS | low polyreactivity
39 | QVQLVESGGGLVQAGGSLRLSCAASGSIFTRYVQGWYRQAPGNDRELVAAISGRGSSTYYADSVKGRFTISRDNAKNTVYLQMNSLKPEDTAVYYCAAEIVVFYSEGQRNTFYYWGQGTQVTVSS | high polyreactivity
40 | QVQLVESGGGLVQAGGSLRLSCAASGSIFTSNAMGWYRQAPVKERELVASISSDGSTKYADSVKGRFTISRDNAKNTVYLQMNSLKPEDTAVYYCAADLGYWVYVEYDYWGQGTQVTVSS | low polyreactivity
41 | QVQLVESGGGLVQAGGSLRLSCAASGSIFTSYAIGWYRQAPGKERELVAGIDWSGGGTYYADSVKGRFTISRDNAKNTVYLQMNSLKPEDTAVYYCNADGPYTRYGPVDYWGQGTQVTVSS | low polyreactivity
42 | QVQLVESGGGLVQAGGSLRLSCAASGSIFTSYAMGWYRQAPGKERELVAGITRGGRTYYADSVKGRFTISRDNAKNTVYLQMNSLKPEDTAVYYCAALSSRHFVFTVDYWGQGTQVTVSS | high polyreactivity
43 | QVQLVESGGGLVQAGGSLRLSCAASGSIFTSYGMGWYRQAPGKERELVAAITYSGDRTYYADSVKGRFTISRDNAKITVYLQMNSLNPEDTAVYYCNVAYVYGSFRRRPMGYWGQGTQVTVSS | high polyreactivity

— the nanobody polyreactivity screen of Harvey et al. (2022)
